Test results from patent publication US5679639.
Like-named read-outs stand apart in the source and are kept apart here. One block for each molecule: values may come before it. No end group written: not given here.

Legend:
[1] = target: activated protein C (APC) (human)
[2] = target: human activated Factor X (Xa) (human)
[3] = target: Factor Va (activated Factor V)
[4] = target: Factor Va (activated Factor V); remark: listed apart in the source
[5] = target: human activated Factor X (Xa) (human); remark: listed apart in the source
[6] = target: activated protein C (APC) (human); remark: listed apart in the source
[7] = target: human activated Factor X (Xa) (human); remark: listed apart in the source
[8] = target: Factor Va (activated Factor V); remark: listed apart in the source
[9] = target: activated protein C (APC) (human); remark: listed apart in the source
[10] = target: Factor Va (activated Factor V); remark: listed apart in the source
[11] = target: activated protein C (APC) (human); remark: listed apart in the source
[12] = target: Factor Va (activated Factor V); remark: listed apart in the source
[13] = target: Factor IXa (Homo sapiens (Human)); design: unit not given beside the values
[14] = target: Factor IXa (Homo sapiens (Human))
[15] = target: activated protein C (APC) (human); remark: listed apart in the source

Inhibition of APC (%), Xa-1 stage coagulation assay in NHP, 500 µM peptide [1]: 0%
Molecule: synthetic peptide PC110-124

IC50, Factor Xa-1 stage clotting assay [2]: > 500 µM
Molecule: synthetic peptide PT463-478

rate of Factor Va inactivation (% Vi/min), 5 nM APC and 40 nM Va, no phospholipids [3]: 4 % Vi/min
Molecule: activated protein C (APC) (enzyme)

Inhibition of APC (%), Xa-1 stage coagulation assay in NHP, 500 µM peptide [1]: 0%
Molecule: synthetic peptide PC65-79

IC50, prothrombinase assay in the presence of Factor Va (1 nM Xa, 0.4 nM Va, 1.2 uM prothrombin) [4]: 10 µM | IC50, Factor Xa-1 stage clotting assay [2]: 25 µM
Molecule: synthetic peptide PT473-487

IC50, prothrombinase assay in the absence of Factor Va [5]: 80 µM | IC50, prothrombinase assay in the presence of Factor Va [5]: 40 µM | IC50, Factor Xa-1 stage clotting assay [2]: 50 µM
Molecule: synthetic peptide PT557-571

Inhibition of APC (%), Xa-1 stage coagulation assay in NHP, 500 µM peptide [1]: 0%
Molecule: synthetic peptide PC48-62

APC amidolytic activity towards S-2366, change in A405/5 minutes (none: 0.374) (A405/5 minutes) [6]: 0.364 | Factor Xa clotting activity in NHP (0.15 nM factor Xa) [7]: 37% | prothrombinase activity in the presence of Factor Va [8]: 40%
Molecule: MHKLREGKWRPKSR-NH2 [scrambled peptide with a randomized sequence of residues 142-155]

Inhibition of APC (%), Xa-1 stage coagulation assay in NHP, 500 µM peptide [1]: 40%
Molecule: RSGWEGRFCQREVSF-NH2 (also: native Cys substituted by Ser or Gly, which position not given here) [synthetic peptide PC81-95]

IC90** (concentration of peptide that inhibits 90% of APC anticoagulant activity), mean of APTT and Xa-1 stage coagulation assays in NHP [9]: 500 µM
Molecule: VLNFIKIPVVPHNEC-NH2 [synthetic peptide PC317-331]

IC50, Factor Xa-1 stage clotting assay [2]: 500 µM
Molecule: EKGRQSTRLKMLEVPY-NH2 [synthetic peptide X329-344]

Inhibition of APC (%), Xa-1 stage coagulation assay in NHP, 500 µM peptide [1]: 0%
Molecule: DTLAFWSKHVDGDQC-NH2 (also: native Cys substituted by Ser or Gly, which position not given here) [synthetic peptide PC36-50]

Inhibition of APC (%), Xa-1 stage coagulation assay in NHP, 500 µM peptide [1]: 80% | prothrombinase activity in the presence of Factor Va [10]: 40 µM | APC amidolytic activity towards S-2366, change in A405/5 minutes (none: 0.374) (A405/5 minutes) [6]: 0.344 | Factor Xa clotting activity in NHP (0.15 nM factor Xa) [7]: 10 µM | 50% inhibition of APC anticoagulant activity, Xa-1-stage coagulation assay in NHP [11]: 25 µM | 50% inhibition of APC anticoagulant activity, Xa-1-stage coagulation assay in protein S-depleted plasma [11]: 5 µM | APC-catalyzed inactivation of Factor Va in the absence of phospholipids [12]: 87% | half-maximal inhibition of the APC-catalyzed inactivation of Factor Va, with phospholipid vesicles [12]: 50 µM
Molecule: GRPWKRMEKKRSHLC-NH2 [synthetic peptide PC142-155 with an additional carboxy-terminal cysteine]

IC50, Factor IXa-1 stage clotting assay [13]: 0 | IC50, tenase assay in the presence of VIIIa [14]: 45 µM | IC50, prothrombinase assay with or without Factor Va [5]: 500 µM | IC50, Factor Xa-1 stage clotting assay [2]: 115 µM
Molecule: VTAFLKWIDRSMKTR-NH2 [synthetic peptide X415-429]

IC50, Factor IXa-1 stage clotting assay [13]: 50 | IC50, tenase assay in the presence of VIIIa [14]: 150 µM | IC50, prothrombinase assay in the presence of Factor Va (1 nM Xa, 0.4 nM Va, 1.2 uM prothrombin) [4]: 75 µM | IC50, Factor Xa-1 stage clotting assay [2]: 50 µM
Molecule: ARKGKYGIYTKVTAF-NH2 [synthetic peptide X404-418]

Factor Xa clotting activity in NHP (0.15 nM factor Xa) [7]: 30%
Molecule: VKFTIRVFNPRNLKI-NH2 [control peptide with a randomized sequence of residues 311-325]

IC50, Factor IXa-1 stage clotting assay [13]: 30 | IC50, tenase assay (Factor Xa generation) in the presence of Factor VIIIa [14]: 2 µM | IC50, tenase assay in the absence of VIIIa [14]: 40 to 60 µM
Molecule: HKGRSALVLQYLRVPL-NH2 [synthetic peptide IX315-330]

IC50, Factor Xa-1 stage clotting assay [2]: > 500 µM
Molecule: QVVNLPIVERPVSKD-NH2 (not fully specified) [synthetic peptide PT481-495]

Inhibition of APC (%), Xa-1 stage coagulation assay in NHP, 500 µM peptide [1]: 0%
Molecule: APGYKLGDDLLQCHP-NH2 (also: native Cys substituted by Ser or Gly, which position not given here) [synthetic peptide PC121-135]

Inhibition of APC (%), Xa-1 stage coagulation assay in NHP, 500 µM peptide [1]: 30%
Molecule: KLGDDLLQCHPAVKF-NH2 (also: native Cys substituted by Ser or Gly, which position not given here) [synthetic peptide PC125-139]

IC50, Factor IXa-1 stage clotting assay [13]: 25 | IC50, tenase assay (Factor Xa generation) in the presence of Factor VIIIa [14]: 6 µM | IC50, tenase assay in the absence of VIIIa [14]: 40 to 60 µM
Molecule: YGIYTKVSRYVNWIK-NH2 [synthetic peptide IX395-409]

Inhibition of APC (%), Xa-1 stage coagulation assay in NHP, 500 µM peptide [1]: 66% | 50% inhibition of APC anticoagulant activity, Xa-1-stage assay in NHP [11]: 250 µM
Molecule: HPAVKFPCGRPWKRM-NH2 (also: native Cys substituted by Ser or Gly, which position not given here) [synthetic peptide PC134-148]

IC50, Factor IXa-1 stage clotting assay [13]: 30 | IC50, tenase assay in the presence of Factor VIIIa [14]: 100 to 140 µM
Molecule: LVLQYLRVPLVDRAT-NH2 [synthetic peptide IX321-335]

IC90** (concentration of peptide that inhibits 90% of APC anticoagulant activity), mean of APTT and Xa-1 stage coagulation assays in NHP [9]: 50 µM | APC-catalyzed inactivation of Factor Va in the absence of phospholipids [3]: 87% | half-maximal inhibition of the APC-catalyzed inactivation of Factor Va, with phospholipid vesicles [3]: 6 µM | prothrombinase activity in the presence of Factor Va (1 nM Xa, 0.4 nM Va, 1.2 µM prothrombin) [10]: 8 µM | APC amidolytic activity towards S-2366, change in A405/5 minutes (none: 0.374) (A405/5 minutes) [6]: 0.342 | Factor Xa clotting activity in NHP (0.15 nM factor Xa) [7]: 7 µM | 50% inhibition of APC anticoagulant activity in APTT and Xa-1-stage assays in NHP and PSDP [15]: 7 to 20 µM
Molecule: KRNRTFVLNFIKIPV-NH2 [synthetic peptide PC311-325]

IC50, Factor IXa-1 stage clotting assay [13]: 50 | IC50, tenase assay in the presence of Factor VIIIa [14]: 100 to 140 µM
Molecule: KVSRYVNWIKEKTKL-NH2 [synthetic peptide IX400-414]

Inhibition of APC (%), Xa-1 stage coagulation assay in NHP, 500 µM peptide [1]: 0%
Molecule: KHVDGDQCLVLPLEH-NH2 (also: native Cys substituted by Ser or Gly, which position not given here) [synthetic peptide PC43-57]
